According to patent US11224662B2, “Methods and therapeutics comprising ligand-targeted ELPs” (priority 2012, dated 2022):

Legend:
[1] = test system: transformed mouse hepatocytes; test: Live cell uptake of rhodamine-conjugated ELP/knob-ELP in hepatocytes; assay type: cell-based; details: 10 μM rhodamine-labeled, 30 minutes at 37° C., confocal microscopy, LYSOTRACKER green
Method: To track cellular uptake, the ELPs S48148 and knob-S48148 were conjugated with a detectable label, NHS-Rhodamine (Thermo Fisher Scientific Inc, Rockford, Ill.) via covalent modification of primary amines at the amino end of the peptide. For S48148, the only available amine is at the amino terminus; however, knob-S48148 has an additional 11 lysine residues that may be sites of modification. The conjugation was performed in 100 mM borate buffer for 2 hours at 4° C., and the conjugated ELP was separated by size exclusion chromatography on a PD10 desalting column (GE Healthcare, Piscataway, N.J.).
To observe uptake into mouse hepatocytes, cells were cultured on 35 mm glass coverslip-bottomed dishes with medium [(DMEM (4.5 g/L) containing 10% fetal bovine serum, g/ml insulin, and 0.02 [μg/ml epidermal growth factor]. Uptake studies were conducted when hepatocytes reached 70% confluence. After washing with warm fresh medium, hepatocytes were cultured in medium containing 10 μM of either S48148 or knob-S48148 conjugated with rhodamine, and 75 nM LYSOTRACKER® green. After 30 minutes incubation at 37° C., the cells were rinsed with warm fresh medium to remove the free knob-ELP/ELP in the medium. Next cells were incubated with 75 nM LYSOTRACKER® green in a 37° C. incubation chamber. […]

[2] = test system: lacrimal gland acinar cells (LGACs); test: Suppression of transcytosis by Myosin Vb tail overexpression in LGACs; assay type: cell-based, rabbit; details: 30 μM Cy5-conjugated, 60 minutes at 37° C.
Method: To obtain the indication of lumen area of LGACs, the cells were also pre-infected with Adenovirus EGFP-actin and helper virus at a 37° C. incubator with 5% CO2 overnight. To avoid the clash of fluorescence colours, the knob-S48148 used in transcytosis inhibition was conjugated with Cy5. The LGACs were grown on 35 mm glass-bottomed dishes for two days. Adenovirus EGFP-actin and helper virus with or without adenovirus mCherry Myosin Vb tail were added into dishes and cultured overnight. After waiting for expression of fluorescence, confocal microscopy was used to make sure adenovirus mCherry-myosin Vb tail and adenovirus EGFP-actin grow in LGACs. On the third day, knob-S48148 conjugated with Cy5 was then mixed with the cold medium at a concentration of 30 μM, warmed to 37° C. and then added into dishes. After 60 minutes incubation in a 37° C. incubator with 5% CO2, LGACs were thoroughly rinsed with fresh warm medium then immediately imaged under a Zeiss LSM 510 Meta confocal microscope system, which is equipped with argon and red and green He—Ne lasers and mounted on a vibration-free table. All images were captured under the confocal microscope and processed using ImageJ (NIH, USA).

LG of BALB/c mice = test: In vivo retention in the lacrimal gland after intra-lacrimal gland injection; parameters: species or system mouse; details: 5 μL of 50 μM rhodamine-labelled, 1 h, compared with untargeted S48I48
Method: Twelve-week-old male BALB/c mice were administered, by intra-lacrimal gland injection, 5 μL of 50 μM rhodamine-labelled S48148 or rhodamine-labelled knob-S48148 (red) combined with 50 μg CF-dextran (10 kD, green). After 1 h, mice were euthanized and the glands were retrieved, embedded into the O.C.T. compound (Tissue-Tek), and frozen on dry ice. The frozen tissue blocks were cut into 10 μm thick sections and imaged using confocal fluorescence microscopy. The white arrows indicate endocytosed S48148 or knob-S48148 nanoparticles. The bar represents 10 μm. […] For this experiment, the mice were euthanatized by intraperitoneal injection with 55 mg ketamine and 14 mg xylazine per kilogram of body weight, followed by cervical dislocation. 5 μL of 50 μM rhodamine labelled knob-S48148 or S48148 was injected into the lacrimal glands of mice. After 60 minutes, the tear was collected from one eye of mouse by adding Carbachol into the related lacrimal gland. For another gland, it was removed after the tear collection was done at the first eye. After removal, LGs were snap frozen and stored on the dry ice. The frozen glands were cut into 10 μm thick sections and mounted on glass slides. Then the sections were examined with a confocal laser scanning microscope (LSM) at excitation wavelengths of 488 and 534 nm.

[3] = target: T1, coxsackie adenovirus receptor (CAR) (Mus musculus, UniProt P97792); test: Competitive binding and uptake with anti-mouse CAR antibody in hepatocytes; assay type: cell-based; details: 20 μg/mL anti-mouse CAR antibody 30 minutes at 37° C., then 10 μM rhodamine-conjugated knob-S48I48
T1 construct: This study was carried out in transformed mouse hepatocytes because of the high expression of CAR; endogenous in cells; host or cells: transformed mouse hepatocyte cell line
T1 sequence (P97792 20-365): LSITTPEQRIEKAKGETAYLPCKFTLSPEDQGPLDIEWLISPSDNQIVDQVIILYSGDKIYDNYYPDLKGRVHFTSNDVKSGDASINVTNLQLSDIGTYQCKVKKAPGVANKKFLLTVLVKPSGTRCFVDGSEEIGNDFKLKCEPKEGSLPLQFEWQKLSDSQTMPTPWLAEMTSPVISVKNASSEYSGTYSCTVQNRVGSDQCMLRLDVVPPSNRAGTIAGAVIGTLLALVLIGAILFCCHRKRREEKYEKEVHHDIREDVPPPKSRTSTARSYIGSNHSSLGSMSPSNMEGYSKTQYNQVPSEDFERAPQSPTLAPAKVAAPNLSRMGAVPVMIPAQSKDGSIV
Method: After confirming that the goat anti-mouse CAR antibody has a high affinity with the mouse hepatocytes, the anti-mouse CAR antibody (0.2 mg/mL) was diluted with warm medium 10-fold and incubated with the hepatocytes for 30 minutes at 37° C. Knob-S48148 conjugated with rhodamine was then added to the medium at a concentration of 10 μM. After 30 minutes incubation with knob-S48148 and 75 nM LYSOTRACKER® green, the hepatocytes were rinsed, then incubated in fresh warm medium with 75 nM LYSOTRACKER® green and imaged as described above.

[4] = Dynamic light scattering of ELP nanoparticles; assay type: physicochemical
Method: (§1) To explore the temperature-dependent phase behavior of the ELPs, optical density and hydrodynamic radius were observed over a range of temperatures. Knob-S96, S48148 and knob-S48148 were diluted to 25 μM in PBS on ice and the absorbance at 350 nm was monitored with a DU800 UV-Vis spectrophotometer (Beckman Coulter, Brea, Calif.) at a temperature gradient of 1° C./minute. […] Then 90 μL sample of was transferred into a 384 well microplate and covered with 20 μL mineral oil. The microplate and mineral oil were pre-chilled at 4° C. at least for 1 hour. The microplate was centrifuged at 4° C. to remove air bubbles from samples before and after addition of mineral oil. Then the sample was measured in a DynaPro plate reader (Wyatt Inc., Santa Barbara, Calif.) at temperature intervals of 1° C. The resulting hydrodynamic radii were collected and analyzed by Dynamics (Wyatt Inc., Santa Barbara, Calif.).

[5] = Temperature-dependent optical density (turbidity) of ELP fusion peptides; assay type: physicochemical; details: 25 μM in PBS; for Transition Temperature T1: first phase transition; for Transition Temperature T1 / Transition Temperature T2: optical density; for Transition Temperature T2: second phase transition
Method: as §1

B1: knob-G(VPGSG)48(VPGIG)48Y (SEQ ID. NO: 10) (protein)
chain: GVPGSGVPGSGVPGSGVPGSGVPGSGVPGSGVPGSGVPGSGVPGSGVPGSGVPGSGVPGSGVPGSGVPGSGVPGSGVPGSGVPGSGVPGSGVPGSGVPGSGVPGSGVPGSGVPGSGVPGSGVPGSGVPGSGVPGSGVPGSGVPGSGVPGSGVPGSGVPGSGVPGSGVPGSGVPGSGVPGSGVPGSGVPGSGVPGSGVPGSGVPGSGVPGSGVPGSGVPGSGVPGSGVPGSGVPGSGVPGSGVPGIGVPGIGVPGIGVPGIGVPGIGVPGIGVPGIGVPGIGVPGIGVPGIGVPGIGVPGIGVPGIGVPGIGVPGIGVPGIGVPGIGVPGIGVPGIGVPGIGVPGIGVPGIGVPGIGVPGIGVPGIGVPGIGVPGIGVPGIGVPGIGVPGIGVPGIGVPGIGVPGIGVPGIGVPGIGVPGIGVPGIGVPGIGVPGIGVPGIGVPGIGVPGIGVPGIGVPGIGVPGIGVPGIGVPGIGVPGIGY
notes: assembles into nanoparticles
cellular uptake / fluorescence localisation [1]: significant cellular uptake | transcytosis with overexpressed mCherry myosin Vb tail [2]: significantly reduce the transcytosis | retention in lacrimal gland (accumulation, surface association, internalization) (LG of BALB/c mice): stronger apical-membrane/luminal accumulation, surface association, and internalization | intracellular knob-S48I48 fluorescence after anti-mouse CAR antibody pre-incubation [3]: reduced the intracellular punctate fluorescence | size by dynamic light scattering (BSA; unimers of the ELPs) ([4]; BSA stable from 10 to 37° C., ELPs as unimers below assembly temperature): around 4 nm | critical nanoparticle temperature (CNT) ([4]; dynamic light scattering): 19.5 °C | Hydrodynamic radius (nm) at 37° C. ([4]; dynamic light scattering, 25 μM in PBS, 37° C.): 21.7 nm | hydrodynamic diameter of nanoparticles ([4]; dynamic light scattering, self-assembled nanoparticles): around 40 nm | Transition Temperature T1 [5]: 19.5 °C | Transition Temperature T1 ([5]; listed as Knob-S48148): around 19.5 °C | Critical aggregation temperature ([5]; optical density at 350 nm by UV-Vis spectrophotometer): 19.5 °C | Transition Temperature T2 [5]: 60 °C | Transition Temperature T2 ([5]; listed as Knob-S48148): around 60 °C
